Reference: the supplement of paper PMC11246515
± gives the standard deviation of the averaged measurements.

Test: total protein half-life in vivo (active degradation + dilution); higher = more stable protein
[1] = wild type E. coli NCM3722, growth: C-lim chemostat, doubling time 6 h
[2] = wild type E. coli NCM3722, growth: C-lim chemostat, doubling time 12 h
[3] = wild type E. coli NCM3722, growth: N-lim chemostat, doubling time 12 h
[4] = E. coli NCM3722 delta-clpP delta-lon delta-hslV, growth: N-lim chemostat, doubling time 6 h
[5] = E. coli NCM3722 delta-clpP, growth: N-lim chemostat, doubling time 6 h
[6] = E. coli NCM3722 delta-lon, growth: N-lim chemostat, doubling time 6 h
[7] = E. coli NCM3722 delta-smpB, growth: N-lim chemostat, doubling time 6 h
[8] = wild type E. coli NCM3722, growth: N-lim chemostat, doubling time 6 h
[9] = wild type E. coli NCM3722, growth: P-lim chemostat, doubling time 6 h
[10] = wild type E. coli NCM3722, growth: P-lim chemostat, doubling time 12 h
[11] = wild type E. coli NCM3722, growth: C-lim chemostat, doubling time 3 h
[12] = E. coli NCM3722 delta-hslV, growth: N-lim chemostat, doubling time 6 h

| Sequence | total protein half-life in vivo [1] [h] | total protein half-life in vivo [2] [h] | total protein half-life in vivo [3] [h] | total protein half-life in vivo [4] [h] | total protein half-life in vivo [5] [h] | total protein half-life in vivo [6] [h] | total protein half-life in vivo [7] [h] | total protein half-life in vivo [8] [h] | total protein half-life in vivo [9] [h] | total protein half-life in vivo [10] [h] | total protein half-life in vivo [11] [h] | total protein half-life in vivo [12] [h] |
| --- | --- | --- | --- | --- | --- | --- | --- | --- | --- | --- | --- | --- |
| MANGWTGNILRVNLTTGNITLEDSSKFKSFVGGMGFGYKIMYDEVPPGTKPFDEANKLVFATGPLTGSGAPCSSRVNITSLSTFTKGNLVVDAHMGGFFAAQMKFAGYDVIIIEGKAKSPVWLKIKDDKVSLEKADFLWGKGTRATTEEICRLTSPETCVAAIGQAGENLVPLSGMLNSRNHSGGAGTGAIMGSKNLKAIAVEGTKGVNIADRQEMKRLNDYMMTELIGANNNHVVPSTPQSWAEYSDPKSRWTARKGLFWGAAEGGPIETGEIPPGNQNTVGFRTYKSVFDLGPAAEKYTVKMSGCHSCPIRCMTQMNIPRVKEFGVPSTGGNTCVANFVHTTIFPNGPKDFEDKDDGRVIGNLVGLNLFDDYGLWCNYGQLHRDFTYCYSKGVFKRVLPAEEYAEIRWDQLEAGDVNFIKDFYYRLAHRVGELSHLADGSYAIAERWNLGEEYWGYAKNKLWSPFGYPVHHANEASAQVGSIVNCMFNRDCMTHTHINFIGSGLPLKLQREVAKELFGSEDAYDETKNYTPINDAKIKYAKWSLLRVCLHNAVTLCNWVWPMTVSPLKSRNYRGDLALEAKFFKAITGEEMTQEKLDLAAERIFTLHRAYTVKLMQTKDMRNEHDLICSWVFDKDPQIPVFTEGTDKMDRDDMHASLTMFYKEMGWDPQLGCPTRETLQRLGLEDIAADLAAHNLLPA | 5.09 | 10.2 ± 4.6 | 7.93 ± 1.3 |  |  |  |  |  |  |  |  |  |
| MNNSRLFRLSRIVIALTAASGMMVNTANAKEEAKAATQYTQQVNQNYAKSLPFSDRQDFDDAQRGFIAPLLDEGILRDANGKVYYRADDYKFDINAAAPETVNPSLWRQSQINGISGLFKVTDKMYQVRGQDISNITFVEGEKGIIVIDPLVTPPAAKAALDLYFQHRPQKPIVAVIYTHSHTDHYGGVKGIISEADVKSGKVQVIAPAGFMDEAISENVLAGNIMSRRALYSYGLLLPHNAQGNVGNGLGVTLATGDPSIIAPTKTIVRTGEKMIIDGLEFDFLMTPGSEAPAEMHFYIPALKALCTAENATHTLHNFYTLRGAKTRDTSKWTEYLNETLDMWGNDAEVLFMPHTWPVWGNKHINDYIGKYRDTIKYIHDQTLHLANQGYTMNEIGDMIKLPPALANNWASRGYYGSVSHNARAVYNFYLGYYDGNPANLHPYGQVEMGKRYVQALGGSARVINLAQEANKQGDYRWSAELLKQVIAANPGDQVAKNLQANNFEQLGYQAESATWRGFYLTGAKELREGVHKFSHGTTGSPDTIRGMSVEMLFDFMAVRLDSAKAAGKNISLNFNMSNGDNLNLTLNDSVLNYRKTLQPQADASFYISREDLHAVLTGQAKMADLVKAKKAKIIGNGAKLEEIIACLDNFDLWVNIVTPN |  | 11.5 | 11.3 |  |  |  |  |  |  |  |  |  |
| MTPGEVRRLYFIIRTFLSYGLDELIPKMRITLPLRLWRYSLFWMPNRHKDKLLGERLRLALQELGPVWIKFGQMLSTRRDLFPPHIADQLALLQDKVAPFDGKLAKQQIEAAMGGLPVEAWFDDFEIKPLASASIAQVHTARLKSNGKEVVIKVIRPDILPVIKADLKLIYRLARWVPRLLPDGRRLRPTEVVREYEKTLIDELNLLRESANAIQLRRNFEDSPMLYIPEVYPDYCSEGMMVMERIYGIPVSDVAALEKNGTNMKLLAERGVQVFFTQVFRDSFFHADMHPGNIFVSYEHPENPKYIGIDCGIVGSLNKEDKRYLAENFIAFFNRDYRKVAELHVDSGWVPPDTNVEEFEFAIRTVCEPIFEKPLAEISFGHVLLNLFNTARRFNMEVQPQLVLLQKTLLYVEGVGRQLYPQLDLWKTAKPFLESWIKDQVGIPALVRAFKEKAPFWVEKMPELPELVYDSLRQGKYLQHSVDKIARELQSNHVRQGQSRYFLGIGATLVLSGTFLLVSRPEWGLMPGWLMAGGLIAWFVGWRKTR [P0A6A0] | 6.626 ± 0.057 | 12.4 ± 1.3 | 12.3 ± 0.45 | 6.52 ± 0.12 | 6.43 ± 0.4 | 5.96 ± 0.34 | 5.829 ± 0.037 | 6.04 ± 0.33 | 6.6 ± 0.39 | 12.8 ± 0.67 |  |  |
| MISDSKLLASAAWDAQSLNELKAKAGEDPAANIRPVARQVEGMFVQMMLKSMRDALPKDGLFSSEHTRLYTSMYDQQIAQQMTAGKGLGLAEMMVKQMTPEQPLPEESTPAAPMKFPLETVVRYQNQALSQLVQKAVPRNYDDSLPGDSKAFLAQLSLPAQLASQQSGVPHHLILAQAALESGWGQRQIRRENGEPSYNLFGVKASGNWKGPVTEITTTEYENGEAKKVKAKFRVYSSYLEALSDYVGLLTRNPRYAAVTTAASAEQGAQALQDAGYATDPHYARKLTNMIQQMKSISDKVSKTYSMNIDNLF |  |  |  |  |  |  |  |  |  |  | 0.391 |  |
| MSSRNNPARVAIVMGSKSDWATMQFAAEIFEILNVPHHVEVVSAHRTPDKLFSFAESAEENGYQVIIAGAGGAAHLPGMIAAKTLVPVLGVPVQSAALSGVDSLYSIVQMPRGIPVGTLAIGKAGAANAALLAAQILATHDKELHQRLNDWRKAQTDEVLENPDPRGAA [P0AG18] | 5.47 ± 0.46 | 9.5 ± 0.76 | 6.68 ± 0.46 | 5.15 ± 0.26 | 4.94 ± 0.41 | 4.93 ± 0.088 | 4.71 ± 0.3 | 4.67 ± 0.13 | 5.68 ± 0.13 | 10.9 ± 0.31 | 2.77 ± 0.034 | 4.8 ± 0.085 |
| MTNLNYQQTHFVMSAPDIRHLPSDTGIEVAFAGRSNAGKSSALNTLTNQKSLARTSKTPGRTQLINLFEVADGKRLVDLPGYGYAEVPEEMKRKWQRALGEYLEKRQSLQGLVVLMDIRHPLKDLDQQMIEWAVDSNIAVLVLLTKADKLASGARKAQLNMVREAVLAFNGDVQVETFSSLKKQGVDKLRQKLDTWFSEMQPVEETQDGE [P0A6P7] | 5.58 ± 0.19 | 11.2 ± 0.46 | 9.45 ± 0.2 | 5.33 ± 0.22 | 6.45 ± 1.6 | 5.83 ± 0.38 | 5.19 ± 0.42 | 5.08 ± 0.32 | 5.59 ± 0.11 | 11.4 ± 0.91 | 2.924 ± 0.022 | 5.05 ± 0.074 |
| MGKLTLLLLAILVWLQYSLWFGKNGIHDYTRVNDDVAAQQATNAKLKARNDQLFAEIDDLNGGQEALEERARNELSMTRPGETFYRLVPDASKRAQSAGQNNR [P0A6S5] | 4.69 ± 0.55 |  | 6.03 | 5.44 | 3.17 | 4.37 |  | 3.47 |  | > 16 | 2.7 | 4.05 |
| MASQLTDAFARKFYYLRLSITDVCNFRCTYCLPDGYKPSGVTNKGFLTVDEIRRVTRAFARLGTEKVRLTGGEPSLRRDFTDIIAAVRENDAIRQIAVTTNGYRLERDVASWRDAGLTGINVSVDSLDARQFHAITGQDKFNQVMAGIDAAFEAGFEKVKVNTVLMRDVNHHQLDTFLNWIQHRPIQLRFIELMETGEGSELFRKHHISGQVLRDELLRRGWIHQLRQRSDGPAQVFCHPDYAGEIGLIMPYEKDFCATCNRLRVSSIGKLHLCLFGEGGVNLRDLLEDDTQQQALEARISAALREKKQTHFLHQNNTGITQNLSYIGG | 1.11 ± 0.23 | 1.92 ± 0.54 | 1.81 ± 0.17 | 3.3 ± 0.76 | 1.83 ± 0.45 | 1.07 ± 0.34 | 0.9113 ± 0.009 | 1.03 | > 8 | 2.39 ± 0.45 | 0.618 ± 0.051 | 0.963 ± 0.26 |
